Numbering of substitutions follows the chain as printed. In names and notes the source's numbering stands. One block for each binder: values may come before it.
Columns and labels:
[1] = molecular target: T1, human CTLA-4 on 58 α-β-CTLA-4/CD3 ζ cells (human; mouse (mCD3ζ)); assay: cell-based or functional assay
[2] = molecular target: T1, human CTLA-4 on 58 α-β-CTLA-4/CD3 ζ …; assay: cell-based or functional assay; remark: listed apart in the source
[3] = molecular target: T1, human CTLA-4 on 58 α-β-CTLA-4/CD3 ζ …; assay: flow cytometry, non-fucosylated IgG1 on 58αβ-CTLA4/mCD3ζ cells, pH 6.2
Protocol: (§1) Antibodies were titrated from 100 μg/mL at a 1:4 dilution across 12 points in pH-specific buffers and incubated for 30-60 minutes. Buffers contained HBSS, 2% FBS^HI, 0.02% sodium azide, 2 mM EDTA, and sodium phosphate buffer (pH 5.4). Sodium phosphate buffer was added until desired pH was reached (7.2, 6.7, 6.2). Approximately 3e5 cells/well were tested for each cell line. […] Detection was done with a monovalent anti-hKappa secondary nanobody conjugated to Alexa647 and used at a dilution of 1:2000. Cells were fixed with BD Fix Solution I for 30 minutes prior to resuspension in pH-specific buffers and reading on the cytometer (BD Fortessa).

[4] = molecular target: T1, human CTLA-4 on 58 α-β-CTLA-4/CD3 ζ …; assay: flow cytometry, non-fucosylated IgG1 on 58αβ-CTLA4/mCD3ζ cells, pH 6.7
Protocol: as §1

[5] = molecular target: T1, human CTLA-4 on 58 α-β-CTLA-4/CD3 ζ …; assay: flow cytometry, non-fucosylated IgG1 on 58αβ-CTLA4/mCD3ζ cells, pH 7.2
Protocol: as §1

[6] = molecular target: T2, monomeric human CTLA-4 (human, UniProt P16410 36-161, limits assumed); assay: SPR, captured Fab, pH 6.0
T2 construct: Soluble monomeric analyte in SPR; also called huCTLA-4
T2 sequence: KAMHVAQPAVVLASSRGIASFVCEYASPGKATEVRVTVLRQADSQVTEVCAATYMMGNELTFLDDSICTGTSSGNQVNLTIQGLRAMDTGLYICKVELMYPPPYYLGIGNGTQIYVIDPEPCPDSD
Protocol: (§2) See Example 3. Antibodies were tested as monovalent Fab fragments to simplify analysis.
(§3) Monomeric human CTLA-4 was flowed as analyte with up to 2 μM top concentration. Between cycles, the capture surface was regenerated with 75 mM phosphoric acid. Experiments were run on a BIACORE® T200 instrument at 37° C. Running buffers were HEPES buffered saline for pH 7.4 experiments and Bis-Tris buffered saline for lower pH experiments. […] Double referenced sensorgrams were fitted to a 1:1 Langmuir binding model with mass transport to determine equilibrium dissociation constants (KD), as well as association (kₐ) and dissociation (kd) rate constants where appropriate.

[7] = molecular target: T2, monomeric human CTLA-4; assay: SPR, captured Fab, pH 7.4
Protocol: as §2, §3

[8] = molecular target: T2, monomeric human CTLA-4; assay: SPR, captured Fab, pH 6.0; remark: listed apart in the source
Protocol: (§4) Binding of selected variants to human CTLA-4 was determined essentially as described in Example 3. […] Nomenclature and sequences for these antibodies is provided at Tables 6 and 7, and in the sequence listing as summarized at Table 8.
as §3

[9] = molecular target: T2, monomeric human CTLA-4; assay: SPR, captured Fab, pH 7.4; remark: listed apart in the source
Protocol: as §4, §3

[10] = molecular target: T2, monomeric human CTLA-4; assay: SPR, captured Fab, pH 6.0 vs 7.4
Protocol: as §2, §3

[11] = molecular target: T2, monomeric human CTLA-4; assay: SPR, captured Fab, pH 6.0 vs 7.4; remark: listed apart in the source
Protocol: as §4, §3

[12] = molecular target: T2, monomeric human CTLA-4; assay: SPR, captured Fab, first experiment of Table 3
Protocol: as §2, §3

[13] = molecular target: T2, monomeric human CTLA-4; assay: SPR, captured Fab, second experiment of Table 3
Protocol: as §2, §3

[14] = molecular target: T2, monomeric human CTLA-4; assay: SPR, captured Fab, pH 6.0, second experiment
Protocol: as §2, §3

[15] = molecular target: T2, monomeric human CTLA-4; assay: SPR, captured Fab, pH 7.4, second experiment
Protocol: as §2, §3

[16] = molecular target: T2, monomeric human CTLA-4; assay: SPR, captured Fab, pH 6.0 vs 7.4, second experiment
Protocol: as §2, §3

[17] = molecular target: T1, human CTLA-4 on 58 α-β-CTLA-4/CD3 ζ …; assay: flow cytometry (APC mean FI), Fab on 58αβ-CTLA4/mCD3ζ cells, pH 6.2
Protocol: as §1
The experimental protocol was the same as used to obtain the data of FIGS. 16A-C.

[18] = molecular target: T3, monomeric cyno CTLA-4 (cynomolgus macaque (Macaca fascicularis), UniProt G7PL88 36-161); assay: SPR, Fab, monomeric cyno CTLA-4 as analyte; koff (s^-1, linear axis 0 to 0.3) plotted against pH
T3 construct: also called CTLA-4 from the cynomolgus macaque Macaca fascicularis
T3 sequence: T2 sequence with S14N, I18T, L106M
Protocol: The pH dependence of binding of selected antibodies of the present invention to human CTLA-4 and cyno CTLA-4 was measured by surface plasmon resonance (SPR) spectroscopy, essentially as described in Example 3. Briefly, antibodies were studied as monovalent Fab fragments. Anti-human kappa polyclonal capture antibody (Southern Biotech, Ala. USA) was immobilized on a ethylenediamine-blocked CM4 sensor chip in a Biacore T200 surface plasmon resonance system. Fab fragments of selected antibodies of the present invention were then captured on one flow cell each. […] Running buffer was 20 mM BisTris, 150 mM NaCl, 0.05% Tween-20, 1 g/L BSA, at a pH ranging from 5.5 to 7.4 in 0.1-0.2 pH unit intervals (12 total). The surface was regenerated with 1/200 H₃PO₄ between cycles. […] Where required, the Rₘₐₓ was fixed by calculating expected binding based on capture level and apparent activity from other fits for the same Fab.

IC50 (read off the curve), mIL-2 secretion, 58αβ-hCTLA/mCD3ζ:rhB7-1 blocking assay, 18 h, pH 7.0 [1]: ~4 nM | IC50 (read off the curve), mIL-2 secretion, 58αβ-hCTLA/mCD3ζ:rhB7-1 blocking assay, 18 h, pH 6.8 [2]: ~2 nM | Cmax (MFI) [3]: 107000 MFI | EC50 [3]: 2.6 nM | Cmax (MFI) [4]: 110000 MFI | EC50 [4]: 3.45 nM | Cmax (MFI) [5]: 107000 MFI | EC50 [5]: 3.94 nM
B1: ipi.105, non-fucosylated IgG1 (antibody, V domains shown)
VH: QVQLVESGGGVVQPGRSLRLSCAASGFTFSHYTMHWVRQAPGKGLEWVTFISYDGHNKYYADSVKGRFTISRDNSKNTLYLQMNSLRAEDTAIYYCARTGWLGPFDYWGQGTLVTVSS
VL: EIVLTQSPGTLSLSPGERATLSCRASQEVGESELAWYQQKPGQAPRLLIYGAFSRATGIPDRFSGSGSGTDFTLTISRLEPEDFAVYYCQQYGSSPWTFGQGTKVEIKR
modifications: non-fucosylated N-linked glycan
notes: Non-fucosylated full-length human IgG1; also called Ipi.105 IgG1-NF

Kd [6]: 14 nM | koff [6]: 0.015 s⁻¹ | kon [6]: 1e+06 M⁻¹ s⁻¹ | Kd [7]: 19 nM | koff [7]: 0.016 s⁻¹ | kon [7]: 850000 M⁻¹ s⁻¹ | Kd [8]: 14 nM | kon [8]: 1e+06 M⁻¹ s⁻¹ | t1/2 [8]: 46 s | Kd [9]: 19 nM | kon [9]: 850000 M⁻¹ s⁻¹ | t1/2 [9]: 43 s | KD 7.4/6 (APBP) [10]: 1.4 | ka 6/7.4 [10]: 1.2 | kd 7.4/6 [10]: 1.1 | KD 7.4/6 (APBP) [11]: 1.3 | ka 6/7.4 [11]: 1.2 | t1/2 6/7.4 [11]: 1.1 | ratio of KD (7.4/6.0) normalized to the ratio of ipilimumab [12]: 1.4
B2: ipi.17 Fab (Fab, V domains shown)
VH: B1 VH with H31S, H56N
VL: not shown
notes: Tested as monovalent Fab; also called S28E

Cmax (MFI) [3]: 88000 MFI | EC50 [3]: 3.15 nM | Cmax (MFI) [4]: 80200 MFI | EC50 [4]: 4.37 nM | Cmax (MFI) [5]: 62000 MFI | EC50 [5]: 11.5 nM
B3: ipi.106, non-fucosylated IgG1 (antibody, V domains shown)
VH: B1 VH with T99H
VL: B1 VL
modifications: non-fucosylated N-linked glycan
notes: Non-fucosylated full-length human IgG1; also called Ipi.106 IgG1-NF

ratio of KD (7.4/6.0) normalized to the ratio of ipilimumab [13]: 4.1 | Kd [14]: 7.2 nM | koff [14]: 0.006 s⁻¹ | kon [14]: 830000 M⁻¹ s⁻¹ | Kd [15]: 24 nM | koff [15]: 0.0099 s⁻¹ | kon [15]: 420000 M⁻¹ s⁻¹ | KD 7.4/6 (APBP) [16]: 3.3 | ka 6/7.4 [16]: 2 | kd 7.4/6 [16]: 1.7
B4: ipi.24 Fab (Fab, V domains shown)
VH: B1 VH with H31S, H56N
VL: not shown
notes: Tested as monovalent Fab

ratio of KD (7.4/6.0) normalized to the ratio of ipilimumab [13]: 4.3 | Kd [14]: 8.9 nM | koff [14]: 0.007 s⁻¹ | kon [14]: 790000 M⁻¹ s⁻¹ | Kd [15]: 30 nM | koff [15]: 0.012 s⁻¹ | kon [15]: 410000 M⁻¹ s⁻¹ | KD 7.4/6 (APBP) [16]: 3.4 | ka 6/7.4 [16]: 2 | kd 7.4/6 [16]: 1.7
B5: ipi.26 Fab (Fab, V domains shown)
VH: B1 VH with H31S, H56N
VL: not shown
notes: Tested as monovalent Fab

Kd [8]: 2.5 nM | kon [8]: 1.3e+06 M⁻¹ s⁻¹ | t1/2 [8]: 217 s | Kd [9]: 390 nM | KD 7.4/6 (APBP) [11]: 76 | EC50 (read off the curve) [17]: ~0.2 µg/mL | binding result [18]: binds
B6: ipi.105 Fab (Fab, V domains shown)
VH: B1 VH
VL: B1 VL
notes: Tested as monovalent Fab

ratio of KD (7.4/6.0) normalized to the ratio of ipilimumab [13]: 5.1 | Kd [14]: 6.5 nM | koff [14]: 0.0062 s⁻¹ | kon [14]: 960000 M⁻¹ s⁻¹ | Kd [15]: 27 nM | koff [15]: 0.013 s⁻¹ | kon [15]: 490000 M⁻¹ s⁻¹ | KD 7.4/6 (APBP) [16]: 4.1 | ka 6/7.4 [16]: 2 | kd 7.4/6 [16]: 2.1
B7: ipi.23 Fab (Fab, V domains shown)
VH: B1 VH with H31S, H56N
VL: not shown
notes: Tested as monovalent Fab

Source: US20220193237A1 (Bristol-Myers Squibb, published 2022)
